From PMC6555819, “Comprehensive study of nuclear receptor DNA binding provides a revised framework for understanding receptor specificity”
Where a chain is given by its changes, count along the chain named.

B1: NRC3_wobSeed63_DR2_T8A_o1 (dsDNA)
DNA 1: GCCGAACAAGGTCACCAGGACAGTGAAGAGGTTGGAGCGATTGACAGCGTAGAATGAAGG
DNA 2: CCTTCATTCTACGCTGTCAATCGCTCCAACCTCTTCACTGTCCTGGTGACCTTGTTCGGC
B2: NRC3_wobSeed114_DR4_T5A_o1 (dsDNA)
DNA 1: GCAAAACAGGGTCATCGTAGGCCAGAGTACGCACAGGCGATTGACAGCGTAGAATGAAGG
DNA 2: CCTTCATTCTACGCTGTCAATCGCCTGTGCGTACTCTGGCCTACGATGACCCTGTTTTGC
B3: NRC3_wobSeed114_DR4_C7A_o1 (dsDNA)
DNA 1: B2 DNA 1 with A5T, C7A
DNA 2: B2 DNA 2 with G54T, T56A
B4: NRC3_wobSeed114_DR4_G20C_o1 (dsDNA)
DNA 1: B2 DNA 1 with A5T, G20C
DNA 2: B2 DNA 2 with C41G, T56A
B5: NRC3_wobSeed14_DR0_T8G_o1 (dsDNA)
DNA 1: GCCCTGCGAGGTCATGGTCAGCTAATCTACAGTATGGCGATTGACAGCGTAGAATGAAGG
DNA 2: CCTTCATTCTACGCTGTCAATCGCCATACTGTAGATTAGCTGACCATGACCTCGCAGGGC
B6: NRC3_wobSeed18_DR0_C18T_o1 (dsDNA)
DNA 1: GCGATACAGGGTCAAGGTCAGAGTACGCGTATTGATGCGATTGACAGCGTAGAATGAAGG
DNA 2: CCTTCATTCTACGCTGTCAATCGCATCAATACGCGTACTCTGACCTTGACCCTGTATCGC
B7: NRC3_random_hg19_377_o1 (dsDNA)
DNA 1: GCTTTAGAAGAAAGGTTTCATTACTGAGAGCAGCCAGCGATTGACAGCGTAGAATGAAGG
DNA 2: CCTTCATTCTACGCTGTCAATCGCTGGCTGCTCTCAGTAATGAAACCTTTCTTCTAAAGC
B8: NRC3_wobSeed135_DR5_T8G_o1 (dsDNA)
DNA 1: GCCGAACGAGGTCATTGACAGGACAGTGAATAGTAAGCGATTGACAGCGTAGAATGAAGG
DNA 2: CCTTCATTCTACGCTGTCAATCGCTTACTATTCACTGTCCTGTCAATGACCTCGTTCGGC
B9: NRC3_wobSeed135_DR5_T8A_o1 (dsDNA)
DNA 1: B8 DNA 1 with G8A
DNA 2: B8 DNA 2 with C53T
B10: NRC3_random_hg19_144_o1 (dsDNA)
DNA 1: GCCAGTGCTGGCGTCGTAGTGCTTGCCATAACAGAGGCGATTGACAGCGTAGAATGAAGG
DNA 2: CCTTCATTCTACGCTGTCAATCGCCTCTGTTATGGCAAGCACTACGACGCCAGCACTGGC
B11: NRC3_random_hg19_296_o1 (dsDNA)
DNA 1: GCGGCCTATGGCTCCAGAATGCTAATGCTACTCTGCGCGATTGACAGCGTAGAATGAAGG
DNA 2: CCTTCATTCTACGCTGTCAATCGCGCAGAGTAGCATTAGCATTCTGGAGCCATAGGCCGC
B12: NRC3_random_hg19_36_o1 (dsDNA)
DNA 1: GCCAGGCAGTTTGCTTGAGCTCAGGAGTTCAAGACTGCGATTGACAGCGTAGAATGAAGG
DNA 2: CCTTCATTCTACGCTGTCAATCGCAGTCTTGAACTCCTGAGCTCAAGCAAACTGCCTGGC
B13: NRC3_wobSeed116_DR4_T13C_o1 (dsDNA)
DNA 1: GCAGAATGAGGTCACCAAAGATCAGGGAAACGCTTGGCGATTGACAGCGTAGAATGAAGG
DNA 2: CCTTCATTCTACGCTGTCAATCGCCAAGCGTTTCCCTGATCTTTGGTGACCTCATTCTGC
B14: NRC3_wobSeed10_DR0_T4G_o1 (dsDNA)
DNA 1: GCAGCGAAAGGTCGAGGTGAGTATAGAGAAAGGGAAGCGATTGACAGCGTAGAATGAAGG
DNA 2: CCTTCATTCTACGCTGTCAATCGCTTCCCTTTCTCTATACTCACCTCGACCTTTCGCTGC
B15: NRC3_wobSeed88_DR3_C21A_o1 (dsDNA)
DNA 1: GCTAGCCTAGGTCATGCGGGACAGTATAGTGTCGGCGCGATTGACAGCGTAGAATGAAGG
DNA 2: CCTTCATTCTACGCTGTCAATCGCGCCGACACTATACTGTCCCGCATGACCTAGGCTAGC
B16: NRC3_wobSeed34_DR1_T4A_o1 (dsDNA)
DNA 1: GCAACGAAAGGTCGAAGGTGAGTATACCCACCCGAAGCGATTGACAGCGTAGAATGAAGG
DNA 2: CCTTCATTCTACGCTGTCAATCGCTTCGGGTGGGTATACTCACCTTCGACCTTTCGTTGC
B17: NRC3_wobSeed34_DR1_A21C_o1 (dsDNA)
DNA 1: B16 DNA 1 with A4T, A21C
DNA 2: B16 DNA 2 with T40G, T57A
B18: NRC3_wobSeed39_DR1_T8G_o1 (dsDNA)
DNA 1: GCCGAACGAGGTCAAAGGACAGTGAAAGGCGACGTAGCGATTGACAGCGTAGAATGAAGG
DNA 2: CCTTCATTCTACGCTGTCAATCGCTACGTCGCCTTTCACTGTCCTTTGACCTCGTTCGGC
B19: NRC3_wobSeed39_DR1_G22T_o1 (dsDNA)
DNA 1: B18 DNA 1 with G8T, G22T
DNA 2: B18 DNA 2 with C39A, C53A
B20: NRC3_wobSeed134_DR5_G26C_o1 (dsDNA)
DNA 1: GCGCTGCTAGGTCAACTGATGGTCACCTAAAGCTCGGCGATTGACAGCGTAGAATGAAGG
DNA 2: CCTTCATTCTACGCTGTCAATCGCCGAGCTTTAGGTGACCATCAGTTGACCTAGCAGCGC
B21: NRC3_wobSeed87_DR3_T8A_o1 (dsDNA)
DNA 1: GCCGAACAAGGTCATCCAGGACAGTGAATACATTGAGCGATTGACAGCGTAGAATGAAGG
DNA 2: CCTTCATTCTACGCTGTCAATCGCTCAATGTATTCACTGTCCTGGATGACCTTGTTCGGC
B22: NRC3_wobSeed87_DR3_A5C_o1 (dsDNA)
DNA 1: B21 DNA 1 with A5C, A8T
DNA 2: B21 DNA 2 with T53A, T56G
B23: NRC3_wobSeed42_DR1_C7A_o1 (dsDNA)
DNA 1: GCTATAAAGGGTCAAAGGCCAGAGTACGAATGTCGAGCGATTGACAGCGTAGAATGAAGG
DNA 2: CCTTCATTCTACGCTGTCAATCGCTCGACATTCGTACTCTGGCCTTTGACCCTTTATAGC
B24: NRC3_random_hg19_87_o1 (dsDNA)
DNA 1: GCGACTGCTTGCATCAGTCAAGGTTTGGGCAGTGAGGCGATTGACAGCGTAGAATGAAGG
DNA 2: CCTTCATTCTACGCTGTCAATCGCCTCACTGCCCAAACCTTGACTGATGCAAGCAGTCGC
B25: NRC3_random_hg19_467_o1 (dsDNA)
DNA 1: GCGAAACTGCTGCAAAGGCCTACTGAAGCCTGACTGGCGATTGACAGCGTAGAATGAAGG
DNA 2: CCTTCATTCTACGCTGTCAATCGCCAGTCAGGCTTCAGTAGGCCTTTGCAGCAGTTTCGC
B26: NRC3_wobSeed140_DR5_T13C_o1 (dsDNA)
DNA 1: GCAGAATGAGGTCATACGTAGATCAGGGAAGAAAGTGCGATTGACAGCGTAGAATGAAGG
DNA 2: CCTTCATTCTACGCTGTCAATCGCACTTTCTTCCCTGATCTACGTATGACCTCATTCTGC
B27: NRC3_wobSeed141_DR5_A29T_o1 (dsDNA)
DNA 1: GCAGTCAAAGTTCAGGACGAGGTAACGTTAAGCACGGCGATTGACAGCGTAGAATGAAGG
DNA 2: CCTTCATTCTACGCTGTCAATCGCCGTGCTTAACGTTACCTCGTCCTGAACTTTGACTGC
B28: NRC3_wobSeed92_DR3_T13C_o1 (dsDNA)
DNA 1: GCAGAATGAGGTCATTAAGATCAGGGAATTGCGGTCGCGATTGACAGCGTAGAATGAAGG
DNA 2: CCTTCATTCTACGCTGTCAATCGCGACCGCAATTCCCTGATCTTAATGACCTCATTCTGC
B29: NRC3_wobSeed27_DR1_T5G_o1 (dsDNA)
DNA 1: GCACGCGGAGGACAAAGGTCAGAGCTACGCCAGTGAGCGATTGACAGCGTAGAATGAAGG
DNA 2: CCTTCATTCTACGCTGTCAATCGCTCACTGGCGTAGCTCTGACCTTTGTCCTCCGCGTGC
B30: NRC3_wobSeed20_DR0_T13C_o1 (dsDNA)
DNA 1: GCAGAATGAGGTCAAGATCAGGGAAACAGAATACATGCGATTGACAGCGTAGAATGAAGG
DNA 2: CCTTCATTCTACGCTGTCAATCGCATGTATTCTGTTTCCCTGATCTTGACCTCATTCTGC
B31: NRC3_wobSeed138_DR5_G19C_o1 (dsDNA)
DNA 1: GCGATACAGGGTCAGCTACAGGCCAGAGTATGGAAAGCGATTGACAGCGTAGAATGAAGG
DNA 2: CCTTCATTCTACGCTGTCAATCGCTTTCCATACTCTGGCCTGTAGCTGACCCTGTATCGC
B32: NRC3_wobSeed13_DR0_G21A_o1 (dsDNA)
DNA 1: GCCGTCCAAGGTCAAGGTCAATGAAAGAGACTCGAAGCGATTGACAGCGTAGAATGAAGG
DNA 2: CCTTCATTCTACGCTGTCAATCGCTTCGAGTCTCTTTCATTGACCTTGACCTTGGACGGC
B33: NRC3_wobSeed109_DR4_A8G_o1 (dsDNA)
DNA 1: GCCGTCCGAGGTCATAGGAGGTCAGTGAAGACAGATGCGATTGACAGCGTAGAATGAAGG
DNA 2: CCTTCATTCTACGCTGTCAATCGCATCTGTCTTCACTGACCTCCTATGACCTCGGACGGC

Each binder was assayed against FXR:RXRa (Homo sapiens, UniProt Q96RI1;P19793 full;full) (assay: no ligand; PBM; 270 nM : 90 nM RXRa; PBS pH 7.4, 2% milk, 0.02% Triton X-100, 1 mM DTT, BSA, 0.4 mg/ml salmon testes DNA). Conditions: tags: His kept;His cleaved; copies: 1;1; label: surface-attached array probe.
Procedure, shortened: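 Regression normalization was applied to scanned fluorescence from custom Agilent 4×180K protein-binding microarrays. Before scanning, arrays were incubated 1 h with ligand-free nuclear receptor dimers, and binding was detected with antibodies against each partner (one per run). Binding z-scores use the random background probes as reference.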

FXR:RXRa, sequence (Q96RI1 whole entry, chain 1 of 2): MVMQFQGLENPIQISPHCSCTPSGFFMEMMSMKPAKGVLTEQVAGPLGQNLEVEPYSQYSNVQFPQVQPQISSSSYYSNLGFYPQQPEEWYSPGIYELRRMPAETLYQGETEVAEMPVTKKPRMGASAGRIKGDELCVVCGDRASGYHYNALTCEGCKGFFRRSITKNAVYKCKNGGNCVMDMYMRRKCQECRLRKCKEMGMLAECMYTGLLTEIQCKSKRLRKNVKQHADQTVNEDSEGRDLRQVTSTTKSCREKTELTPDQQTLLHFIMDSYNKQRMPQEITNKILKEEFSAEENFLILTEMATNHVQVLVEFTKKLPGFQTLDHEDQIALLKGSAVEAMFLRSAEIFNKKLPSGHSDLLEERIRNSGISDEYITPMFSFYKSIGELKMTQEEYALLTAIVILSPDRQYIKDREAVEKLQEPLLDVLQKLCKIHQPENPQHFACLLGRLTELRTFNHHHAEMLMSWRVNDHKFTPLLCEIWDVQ
FXR:RXRa, sequence (P19793 whole entry, chain 2 of 2): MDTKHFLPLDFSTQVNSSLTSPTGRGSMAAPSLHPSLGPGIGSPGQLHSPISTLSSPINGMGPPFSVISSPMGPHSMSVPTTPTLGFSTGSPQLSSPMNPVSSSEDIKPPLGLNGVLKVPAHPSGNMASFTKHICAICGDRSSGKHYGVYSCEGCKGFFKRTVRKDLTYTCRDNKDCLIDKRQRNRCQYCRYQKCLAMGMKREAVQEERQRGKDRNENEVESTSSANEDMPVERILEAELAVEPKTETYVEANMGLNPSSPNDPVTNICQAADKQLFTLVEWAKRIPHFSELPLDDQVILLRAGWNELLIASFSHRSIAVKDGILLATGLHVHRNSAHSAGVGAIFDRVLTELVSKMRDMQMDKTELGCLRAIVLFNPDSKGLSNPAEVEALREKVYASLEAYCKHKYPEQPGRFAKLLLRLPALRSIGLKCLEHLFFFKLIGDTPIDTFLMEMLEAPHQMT

Binder	binding signal
B1	7.74 PBM z-score against 500 random probes
B2	7.8 PBM z-score against 500 random probes
B3	7.8 PBM z-score against 500 random probes
B4	7.71 PBM z-score against 500 random probes
B5	7.8 PBM z-score against 500 random probes
B6	7.81 PBM z-score against 500 random probes
B7	-0.61 PBM z-score against 500 random probes
B8	7.83 PBM z-score against 500 random probes
B9	7.74 PBM z-score against 500 random probes
B10	-0.87 PBM z-score against 500 random probes
B11	-0.48 PBM z-score against 500 random probes
B12	-0.62 PBM z-score against 500 random probes
B13	7.91 PBM z-score against 500 random probes
B14	4.31 PBM z-score against 500 random probes
B15	4.37 PBM z-score against 500 random probes
B16	4.23 PBM z-score against 500 random probes
B17	4.14 PBM z-score against 500 random probes

Binder	binding signal
B18	8.11 PBM z-score against 500 random probes
B19	4.46 PBM z-score against 500 random probes
B20	4.42 PBM z-score against 500 random probes
B21	8.1 PBM z-score against 500 random probes
B22	4.33 PBM z-score against 500 random probes
B23	7.71 PBM z-score against 500 random probes
B24	-0.74 PBM z-score against 500 random probes
B25	-0.59 PBM z-score against 500 random probes
B26	8.1 PBM z-score against 500 random probes
B27	4.29 PBM z-score against 500 random probes
B28	7.7 PBM z-score against 500 random probes
B29	4.39 PBM z-score against 500 random probes
B30	7.87 PBM z-score against 500 random probes
B31	4.25 PBM z-score against 500 random probes
B32	8.19 PBM z-score against 500 random probes
B33	8.19 PBM z-score against 500 random probes
